From US20240309087A1

What was measured:
[1] = target: human CD112R on CHO-CD112R cells (human) (UniProt Q6DKI7); assay: FACS binding to CHO-CD112R cells, MFI-APC, fit of the negative control; unit from the axis
[2] = target: human CD112R on CHO-CD112R cells (human) (UniProt Q6DKI7); assay: FACS binding to CHO-CD112R cells, MFI-APC, ambiguous fit of the negative control; unit from the axis

Sequence of human CD112R on CHO-CD112R cells (human) (Q6DKI7 41-326 limits assumed): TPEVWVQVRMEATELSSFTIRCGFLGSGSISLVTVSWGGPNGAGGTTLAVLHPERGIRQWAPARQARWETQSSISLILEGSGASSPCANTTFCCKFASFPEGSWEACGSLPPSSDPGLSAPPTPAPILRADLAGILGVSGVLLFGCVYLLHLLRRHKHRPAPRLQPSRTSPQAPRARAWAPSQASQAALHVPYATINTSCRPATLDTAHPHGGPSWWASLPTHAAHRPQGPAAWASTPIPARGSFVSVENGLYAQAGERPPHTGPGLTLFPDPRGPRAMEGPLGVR

An EC50 [1] of 26.3 µg/mL and an EC50 [2] of 4050 µg/mL were found for anti-KLH hu-IgG4 antibody in this work.
